This passage reports FcRn binding relative to control tralokinumab results from paper PMC6520328.

In the test the target is neonatal Fc receptor (FcRn) (UniProt P55899). Put plainly: FcRn binding assay.
UniProt P55899, sequence (P55899 whole entry, looked up, tested part not stated): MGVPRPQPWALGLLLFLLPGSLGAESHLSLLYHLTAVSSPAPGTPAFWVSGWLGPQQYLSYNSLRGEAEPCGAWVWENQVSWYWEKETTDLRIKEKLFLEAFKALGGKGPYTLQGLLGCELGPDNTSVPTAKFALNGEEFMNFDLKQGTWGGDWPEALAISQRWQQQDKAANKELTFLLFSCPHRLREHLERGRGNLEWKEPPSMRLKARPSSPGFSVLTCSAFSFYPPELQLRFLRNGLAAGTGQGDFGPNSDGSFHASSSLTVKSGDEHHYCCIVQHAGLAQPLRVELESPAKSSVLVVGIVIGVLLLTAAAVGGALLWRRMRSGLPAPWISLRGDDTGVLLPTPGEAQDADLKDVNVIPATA

“Fc deglycosylated tralokinumab (antibody)” displayed a FcRn binding relative to control tralokinumab of 87%.
